# Assay results: patent publication US20050164926A1 (published 2005)
# Molecular target: porcine trypsin (porcine, UniProt P00761 9-231)
# Assay: cell-based or functional assay
# porcine trypsin, sequence (P00761 9-231 limits assumed): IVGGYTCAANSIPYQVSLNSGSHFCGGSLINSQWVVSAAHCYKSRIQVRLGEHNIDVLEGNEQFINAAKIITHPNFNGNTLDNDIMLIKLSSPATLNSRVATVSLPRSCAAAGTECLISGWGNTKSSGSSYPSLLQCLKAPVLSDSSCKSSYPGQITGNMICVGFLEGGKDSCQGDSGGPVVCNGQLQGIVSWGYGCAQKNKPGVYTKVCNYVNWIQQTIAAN
binder,measurement,value
ANV-KAPP (other) AQVLRGTVTDFPGFDERADAETLRKAMKGLGTDEESILTLLTSRSNAQRQEISAAFKTLFGRDLLDDLKSELTGKFEKLIVALMKPSRLYDAYELKHALKGAGTNEKVLTEIIASRTPEELRAIKQVYEEEYGSSLEDDVVGDTSGYYQRMLVVLLQANRDPDAGIDEAQVEQDAQALFQAGELKWGTDEEKFITIFGTRSVSHLRKVFDKYMTISGFQIEETIDRETSGNLEQLLLAVVKSIRSIPAYLAETLYYAMKGAGTDDHTLIRVMVSRSEIDLFNIRKEFRKNFATSLYSMIKGDTSGDYKKALLLLAGEDDEVCSEQAETGPCRAMISRWYFDVTEGKCAPFFYGGCGGNRNNFDTEEYCMAVCGSAI,"apparent stoichiometry of inhibition (amidolysis of S2444, titration of trypsin activity)",1 mol inhibitor per mol enzyme
